Data: article PMC3951675 (Journal of molecular biology, 2013)

B1: isolated regulatory domain of tyrosine hydroxylase (RDTyrH, residues 1-159) (domain or fragment, rat, UniProt P04177 1-159, looked up)
chain: MPTPSAPSPQPKGFRRAVSEQDAKQAEAVTSPRFIGRRQSLIEDARKEREAAAAAAAAAVASSEPGNPLEAVVFEERDGNAVLNLLFSLRGTKPSSLSRAVKVFETFEAKIHHLETRPAQRPLAGSPHLEYFVRFEVPSGDLAALLSSVRRVSDDVRSA
B2: regulatory domain of tyrosine hydroxylase lacking the first 64 residues (RDTyrH_(65-159)) (domain or fragment, rat, UniProt P04177 65-159, looked up)
chain: PGNPLEAVVFEERDGNAVLNLLFSLRGTKPSSLSRAVKVFETFEAKIHHLETRPAQRPLAGSPHLEYFVRFEVPSGDLAALLSSVRRVSDDVRSA

Experiments:
AUC = target: the molecule itself; test: AUC
SEC = target: the molecule itself; test: SEC

| Protein | stoichiometry N (AUC) | stoichiometry N (SEC) |
| --- | --- | --- |
| B1 | 2 | – |
| B2 | – | 2 |
